Three substances from patent publication US5227469A, “Platelet aggregation inhibitors from the leech” (Genentech, Inc., priority 1990, dated 1993) can be followed below.

Experiment [1] concerns the target GP IIb IIIa on human platelets (platelet rich plasma) (human) (UniProt P08514).
For experiment [2], the target named is glycoprotein IIb IIIa (GP IIb IIIa), purified from outdated human platelets (human) (UniProt P08514). The experiment is described as follows: Fg/GP IIb-IIIa solid phase ELISA. On the technique in general: ELISA stands for enzyme-linked immunosorbent assay.
For experiment [3] the target is unchanged. The experiment is described as follows: Fg/GP IIb IIIa ELISA units per mg protein.
For experiment [4] the target is unchanged. The experiment is described as follows: Fg/GP IIb IIIa ELISA, dilution of the 0.085 mg/ml fraction giving a half maximal response.
Experiment [5] shares this target. The experiment in a line: Fg/GP IIb IIIa solid phase ELISA, inhibition of GP IIb IIIa binding to immobilized fibrinogen.
For experiment [6] the target is unchanged. The experiment is described as follows: GP IIb IIIa/Fg ELISA, IC50 against the reference GRGDV.

Sequence of kistrin (P30403 408-475 limits assumed): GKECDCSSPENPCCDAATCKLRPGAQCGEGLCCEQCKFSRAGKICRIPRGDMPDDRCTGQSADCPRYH

On to kistrin (from UniProt P30403), for which the IC50 (nM), human platelet aggregation assay (ADP activation) in experiment [1] came to 137 nM. Besides, the IC50 in experiment [2] worked out at 4.6 nM.

Substance ornatin E gave a specific activity (U/mg) in experiment [3] of 42400 U/mg. Also, the half maximal dilution in experiment [4] amounted to 3610. The IC50 in experiment [2] was determined as 4.5 nM.

For decorsin, the IC50 in experiment [5] came out at 1.5 nM. In experiment [6], this substance returned a times more potent than GRGDV of 27 fold.

As a reminder, the IC50 is the point on the concentration scale where inhibition reaches its midpoint. Low readings indicate higher potency, high ones lower potency.
